In patent US8663616B2, “Enzymatic peracid generation for use in oral care products” (E I du Pont de Nemours and Company, priority 2010, dated 2014):

B1: EZ-16: C277T-link1-HC263-H6, SEQ ID NO: 440 (protein)
chain: MAFFDLPLEELKKYRPERYEEKDFDEFWEETLAESEKFPLDPVFERMESHLKTVEAYDVTFSGYRGQRIKGWLLVPKLEEEKLPCVVQYIGYNGGRGFPHDWLFWPSMGYICFVMDTRGQGSGWLKGDTPDYPEGPVDPQYPGFMTRGILDPRTYYYRRVFTDAVRAVEAAASFPQVDQERIVIAGGSQGGGIALAVSALSKKAKALLCDVPFLCHFRRAVQLVDTHPYAEITNFLKTHRDKEEIVFRTLSYFDGVNFAARAKIPALFSVGLMDNITPPSTVFAAYNYYAGPKEIRIYPYNNHEGGGSFQAVEQVKFLKKLFEKGGPGSGGAGSPGSAGGPGSPSAQSQLPDKHSGLHERAPQRYGPEPEPEPEPIPEPPKEAPVVIEKPKPKPKPKPKPPAHDHKNQKETHQRHAAGSGGGGSPHHHHHH
B2: EZ-14: C277T-link1-DenP308-H6, SEQ ID NO: 438 (protein)
chain: MAFFDLPLEELKKYRPERYEEKDFDEFWEETLAESEKFPLDPVFERMESHLKTVEAYDVTFSGYRGQRIKGWLLVPKLEEEKLPCVVQYIGYNGGRGFPHDWLFWPSMGYICFVMDTRGQGSGWLKGDTPDYPEGPVDPQYPGFMTRGILDPRTYYYRRVFTDAVRAVEAAASFPQVDQERIVIAGGSQGGGIALAVSALSKKAKALLCDVPFLCHFRRAVQLVDTHPYAEITNFLKTHRDKEEIVFRTLSYFDGVNFAARAKIPALFSVGLMDNITPPSTVFAAYNYYAGPKEIRIYPYNNHEGGGSFQAVEQVKFLKKLFEKGGPGSGGAGSPGSAGGPGSTKPPRTPTANTSRPHHNFGSGGGGSPHHHHHH
B3: EZ-17: C277T-link2-H6, SEQ ID NO: 441 (protein)
chain: MAFFDLPLEELKKYRPERYEEKDFDEFWEETLAESEKFPLDPVFERMESHLKTVEAYDVTFSGYRGQRIKGWLLVPKLEEEKLPCVVQYIGYNGGRGFPHDWLFWPSMGYICFVMDTRGQGSGWLKGDTPDYPEGPVDPQYPGFMTRGILDPRTYYYRRVFTDAVRAVEAAASFPQVDQERIVIAGGSQGGGIALAVSALSKKAKALLCDVPFLCHFRRAVQLVDTHPYAEITNFLKTHRDKEEIVFRTLSYFDGVNFAARAKIPALFSVGLMDNITPPSTVFAAYNYYAGPKEIRIYPYNNHEGGGSFQAVEQVKFLKKLFEKGGSHHHHHH
B4: EZ-12: T. maritima C277T variant, untargeted, SEQ ID NO: 437 (protein)
chain: MAFFDLPLEELKKYRPERYEEKDFDEFWEETLAESEKFPLDPVFERMESHLKTVEAYDVTFSGYRGQRIKGWLLVPKLEEEKLPCVVQYIGYNGGRGFPHDWLFWPSMGYICFVMDTRGQGSGWLKGDTPDYPEGPVDPQYPGFMTRGILDPRTYYYRRVFTDAVRAVEAAASFPQVDQERIVIAGGSQGGGIALAVSALSKKAKALLCDVPFLCHFRRAVQLVDTHPYAEITNFLKTHRDKEEIVFRTLSYFDGVNFAARAKIPALFSVGLMDNITPPSTVFAAYNYYAGPKEIRIYPYNNHEGGGSFQAVEQVKFLKKLFEKG
B5: EZ-18: C277T-link1-(GK)5-H6, SEQ ID NO: 442 (protein)
chain: MAFFDLPLEELKKYRPERYEEKDFDEFWEETLAESEKFPLDPVFERMESHLKTVEAYDVTFSGYRGQRIKGWLLVPKLEEEKLPCVVQYIGYNGGRGFPHDWLFWPSMGYICFVMDTRGQGSGWLKGDTPDYPEGPVDPQYPGFMTRGILDPRTYYYRRVFTDAVRAVEAAASFPQVDQERIVIAGGSQGGGIALAVSALSKKAKALLCDVPFLCHFRRAVQLVDTHPYAEITNFLKTHRDKEEIVFRTLSYFDGVNFAARAKIPALFSVGLMDNITPPSTVFAAYNYYAGPKEIRIYPYNNHEGGGSFQAVEQVKFLKKLFEKGGPGSGGAGSPGSAGGPGSGKGKGKGKGKHHHHHH

Experiments:
[1] = T. maritima C277S/C277T constructs, peracetic acid in solution (Example 11); assay type: biochemical; conditions: 0.5 μM enzyme, 100 mM triacetin, 100 mM H2O2, pH 7.2, 10 min, 37° C.; no enzyme 114
Experimental: (§1) The detection of peracetic acid followed the method described in Pinkernell et. al. (Analyst, 1997, 122, 567) using colorimetric detection of 2,2′-azino-bis(3-ethylbenzothiazoline(-6-sulfonate (ABTS) oxidation by peracetic acid. Following the formation of peracetic acid with the addition of triacetin and hydrogen peroxide, 90 μL of solution was added to 10 μL of 0.1 M H3PO4 in a well plate. 50 μL of 1 M acetic acid, 50 μL of 0.5 g/L ABTS and 50 μL of 0.002 g/L of KI was added. The solution was allowed to develop for 5 min. The absorbance of the solution was measured at 405 nm using a microplate reader. The peracetic acid concentration was calculated based on a standard curve developed simultaneously using peracetic acid reagent solution.
Perhydrolase enzymes listed in Table 5 were assessed for enzyme activity in solution as described in Example 7. The enzyme activity in solution was measured by making a 500 μl solution of 0.5 μM of each enzyme in 100 mM triacetin, 100 mM H2O2 and 10 mM phosphate buffer, pH 7.2. The solution was incubated for 10 min, at 37° C. After the reaction was stopped by mixing an aliquot with H3PO4, a 10 μL aliquot was removed for proper dilution, and then detected via ABTS oxidation as described in Example 7.

[2] = T. maritima C277S/C277T constructs, peracetic acid when bound to bovine enamel (Example 11); assay type: biochemical; conditions: bovine enamel exposed to 10 μM enzyme, 4 washes; 100 mM triacetin, 100 mM H2O2, 30 min, 37° C.; no enzyme 570
Experimental: as §1
The perhydrolase enzymes were also assessed for binding to bovine enamel substrates. Enamel substrates were prepared as described in Example 2 and 3. Each enamel block was hydrated in water for overnight at room temperature (˜22° C.). The enamel blocks were then equilibrated with 10 mM potassium phosphate buffer, pH7.2, for 10 min. The enamel substrates were rinsed 3 times the buffer. The enamel wells were filled with 500 μL of 10 μM enzyme solutions which was prepared by diluting in 10 mM phosphate buffer. The samples were incubated for 30 min with slow shaking at 37° C. The non-binding enzyme was removed by washing 4 times with phosphate buffer. Then, each enamel block was embedded inside a putty filled 24-well plate, with only the enamel top surface exposed. The perhydrolase activity from enamel bound enzyme was measured as described in Example 8. 100 μL reaction mixtures (100 mM phosphate buffer, pH7.2 and 100 mM H2O2 and 100 mM triacetin) was added on top of the enamel and incubated for 30 min at 37° C. A 90 μL aliquot was removed for detection via ABTS oxidation as noted in Example 8. Each sample data point represents an average of 3 independent enamel blocks.

| Molecule | Peracetic acid (ppm) In Solution [1] [ppm] | Peracetic acid (ppm) On Enamel [2] [ppm] |
| --- | --- | --- |
| B1 | 6496 | 1832 |
| B2 | 4689 | 1418 |
| B3 | 5360 | 616 |
| B4 | 4918 | 612 |
| B5 | 5537 | 1158 |
